Experimental data taken from patent publication US20230265151A1, “GIP/GLP1 CO-AGONIST COMPOUNDS” (priority 2020, published 2023).

T1: human GIP receptor (human, UniProt P48546 22-466)
T1 sequence (looked up): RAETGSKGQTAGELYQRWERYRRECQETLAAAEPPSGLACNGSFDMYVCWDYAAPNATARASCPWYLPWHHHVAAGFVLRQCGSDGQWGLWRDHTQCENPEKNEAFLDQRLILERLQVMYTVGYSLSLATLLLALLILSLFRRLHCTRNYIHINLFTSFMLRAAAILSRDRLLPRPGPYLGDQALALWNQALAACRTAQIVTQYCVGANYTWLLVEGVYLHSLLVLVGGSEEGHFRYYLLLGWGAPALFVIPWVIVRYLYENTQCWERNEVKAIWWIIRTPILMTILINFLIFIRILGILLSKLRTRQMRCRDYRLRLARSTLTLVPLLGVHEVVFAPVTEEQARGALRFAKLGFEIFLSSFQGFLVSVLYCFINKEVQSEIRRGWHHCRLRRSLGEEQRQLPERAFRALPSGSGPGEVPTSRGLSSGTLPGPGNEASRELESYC

T2: human GIP receptor (human) (UniProt P48546)
T2 sequence (looked up): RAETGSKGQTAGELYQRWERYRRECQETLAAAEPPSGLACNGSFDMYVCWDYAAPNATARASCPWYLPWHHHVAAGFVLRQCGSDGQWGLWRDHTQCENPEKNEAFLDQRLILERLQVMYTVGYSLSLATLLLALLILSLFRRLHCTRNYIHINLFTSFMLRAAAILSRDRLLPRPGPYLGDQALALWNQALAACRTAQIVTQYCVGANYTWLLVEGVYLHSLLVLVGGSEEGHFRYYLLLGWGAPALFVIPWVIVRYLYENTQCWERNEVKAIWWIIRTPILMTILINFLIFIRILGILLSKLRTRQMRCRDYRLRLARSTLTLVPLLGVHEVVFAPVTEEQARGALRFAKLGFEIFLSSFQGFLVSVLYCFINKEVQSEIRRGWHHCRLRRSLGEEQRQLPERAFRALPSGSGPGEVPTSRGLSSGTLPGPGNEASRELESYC

T3: human GIP receptor (human, UniProt P48546 22-466)
T3 sequence (looked up): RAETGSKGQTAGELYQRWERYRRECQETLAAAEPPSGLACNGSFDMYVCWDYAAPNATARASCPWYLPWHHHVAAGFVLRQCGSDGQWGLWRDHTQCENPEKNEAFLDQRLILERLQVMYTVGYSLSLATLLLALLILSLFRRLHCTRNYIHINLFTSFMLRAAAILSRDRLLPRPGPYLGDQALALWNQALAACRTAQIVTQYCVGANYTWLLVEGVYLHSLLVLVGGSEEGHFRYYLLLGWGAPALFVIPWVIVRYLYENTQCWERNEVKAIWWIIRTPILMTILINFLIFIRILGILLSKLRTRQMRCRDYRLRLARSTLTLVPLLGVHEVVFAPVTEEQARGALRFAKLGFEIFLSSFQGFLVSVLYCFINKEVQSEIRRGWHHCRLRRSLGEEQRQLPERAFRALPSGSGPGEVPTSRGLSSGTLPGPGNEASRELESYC


Columns and labels:
Assay in all cases: cell-based or functional assay
human GIP receptor [1] = target: T1, human GIP receptor
human glucagon receptor [2] = target: human glucagon receptor (human, UniProt P47871 26-477)
[3] = target: T2, human GIP receptor (human)
hGLP-1R = hGLP-1R (Homo sapiens, UniProt P43220)
[4] = target: human glucagon receptor (human) (UniProt P47871)
human GLP-1 receptor = human GLP-1 receptor (human, UniProt P43220 24-463)
human glucagon receptor [5] = target: human glucagon receptor (human, UniProt P47871 26-477); remark: listed apart in the source
Target sequence in this assay (P47871 26-477): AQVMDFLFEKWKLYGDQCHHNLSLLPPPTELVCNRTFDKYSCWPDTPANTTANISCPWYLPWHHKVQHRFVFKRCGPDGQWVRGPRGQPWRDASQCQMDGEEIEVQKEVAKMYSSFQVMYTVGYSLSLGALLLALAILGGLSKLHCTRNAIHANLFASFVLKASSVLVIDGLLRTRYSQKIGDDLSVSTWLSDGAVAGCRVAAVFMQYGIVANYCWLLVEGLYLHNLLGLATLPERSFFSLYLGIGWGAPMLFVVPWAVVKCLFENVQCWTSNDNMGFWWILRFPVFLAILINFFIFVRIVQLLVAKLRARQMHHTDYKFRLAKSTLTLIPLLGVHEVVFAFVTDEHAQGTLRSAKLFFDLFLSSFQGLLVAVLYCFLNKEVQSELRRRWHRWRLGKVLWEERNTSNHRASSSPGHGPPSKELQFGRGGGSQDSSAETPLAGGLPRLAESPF

human GIP receptor [6] = target: T3, human GIP receptor; remark: listed apart in the source

| Binder | cAMP EC50 (1.0% HSA) (human GIP receptor [1]) | cAMP EC50 (1.0% HSA) (human glucagon receptor [2]) | cAMP EC50 [3] | cAMP Emax [3] | cAMP EC50 (hGLP-1R) | cAMP Emax (hGLP-1R) | cAMP EC50 [4] | cAMP EC50 (1.0% HSA) (human GLP-1 receptor) | cAMP EC50 (1.0% HSA) (human glucagon receptor [5]) | cAMP EC50 (1.0% HSA) (human GIP receptor [6]) | cAMP Emax (1.0% HSA) (human GIP receptor [6]) | cAMP Emax (1.0% HSA) (human GLP-1 receptor) |
| --- | --- | --- | --- | --- | --- | --- | --- | --- | --- | --- | --- | --- |
| YXEGTXTSDXSIXLDXKAQXEFIXXLIEGGKSSGAPPPS (Aib2, αMeF(2F)6, 1Nal10, αMeL13, Orn16, Aib20, D-Glu24, αMeY25; acylated K17, K31 (groups as in name); C-terminal amide) | 6.75 nM | > 9950 nM |  |  |  |  |  |  |  |  |  |  |
| YXEGTXTSDXXIXLDXKAQXKFIXXLIEGGPSSGAPPPS (Y-Aib-EGT-αMeF(2F)-TSD-4Pal-Aib-I-αMeL-LD-Orn-K((2-[2-(2-Amino-ethoxy)-ethoxy]-acetyl)3-(γ-Glu)-CO-(CH2)10-CH3)AQ-Aib-K((2-[2-(2-Amino-ethoxy)-ethoxy]-acetyl)3-(γ-Glu)-CO-(CH2)10-CH3)FI-(D-Glu)-αMeY-LIEGGPSSGAPPPS-NH2) [Example 422] |  |  | 0.00655 nM | 104% | 0.0729 nM | 106% | > 9950 nM | 3.84 nM | > 9950 nM | 0.199 nM | 97.5% |  |
| YXEGTXTSDXXIXLDXKAQXKXIXXLIEGGPSSGAPPPS (not fully specified; Y-Aib-EGT-αMeF(2F)-TSD-4Pal-Aib-I-αMeL-LD-Orn-K((2-[2-(2-Amino-ethoxy)-ethoxy]-acetyl)2-(γ Glu)-CO-(CH2)10H3)AQ-Aib-K((2-[2-(2-Amino-ethoxy)-ethoxy]-acetyl)2-(γGlu)-CO-(CH2)10C3)-αMeFI-(D-Glu)-αMeY-LIEGGPSSGAPPPS-NH2) [Example 430] |  |  | 0.0175 nM | 107% | 0.342 nM | 93.1% | > 9950 nM | 26.8 nM | > 9950 nM | 1.09 nM | 91.5% | 88.5% |
| YXEGTXTSDXXIXLDXKAQXKFIXXLIEGGPSSGAPPPS (Y-Aib-EGT-αMeF(2F)-TSD-4Pal-Aib-I-αMeL-LD-Orn-K((2-[2-(2-Amino-ethoxy)-ethoxy]-acetyl)-(γ-Glu)-CO-(CH2)10-CH3)AQ-Aib-K((2-[2-(2-Amino-ethoxy)-ethoxy]-acetyl)-(γ-Glu)-CO-(CH2)10-CH3)FI-(D-Glu)-αMeY-LIEGGPSSGAPPPS-NH2) [Example 426] |  |  | 0.0191 nM | 93.3% | 0.206 nM | 97.2% | > 9950 nM | 29.7 nM | > 9950 nM | 3.88 nM | 91.2% |  |
| YXEGTXTSDXXIXLDXKAQXXFIXXLIEGGPSSGAPPPSK (Y-Aib-EGT-αMeF(2F)-TSD-4Pal-Aib-I-αMeL-LD-Orn-K((2-[2-(2-Amino-ethoxy)-ethoxy]-acetyl)2-(γ-Glu)-CO-(CH2)10-CH3)AQ-Aib-4Pal-FI-(D-Glu)-αMeY-LIEGGPSSGAPPPSK((2-[2-(2-Amino-ethoxy)-ethoxyl-acetyl)2-(γ-Glu)-CO-(CH2)10-CH3)-NH2) [Example 420] |  |  | 0.00964 nM | 101% | 0.123 nM | 99.7% | > 9950 nM | 10 nM | > 9950 nM | 0.351 nM |  | 109% |
| YXEGTXTSDXXIXLDXKAQXEFIXXLIEGGPSSGAPPPSK (Y-Aib-EGT-αMeF(2F)-TSD-4Pal-Aib-I-αMeL-LD-Orn-K((2-[2-(2-Amino-ethoxy)-ethoxy]-acetyl)-(γ-Glu)-CO-(CH2)10-CH3)AQ-Aib-EFI-(D-Glu)-αMeY-LIEGGPSSGAPPPSK((2-[2-(2-Amino-ethoxy)-ethoxy]-acetyl)-(γ-Glu)-CO-(CH2)10-CH3)-NH2) [Example 428] |  |  | 0.00797 nM | 95.5% | 0.102 nM | 106% | > 9950 nM | 10.2 nM | > 9950 nM | 0.748 nM |  |  |
| YXEGTXTSDXXIXLDXQAQXKFIXXLIEGGPSSGAPPPSK (Y-Aib-EGT-αMeF(2F)-TSD-4Pal-Aib-I-αMeL-LD-Orn-QAQ-Aib-K((2-[2-(2-Amino-ethoxy)-ethoxy]-acetyl)2-(γ-Glu)-CO-(CH2)12-CO2H)FI-(D-Glu)-αMeY-LIEGGPSSGAPPPSK((2-[2-(2-Amino-ethoxy)-ethoxy]-acetyl)2-(γ-Glu)-CO-(CH2)12-CO2H)-NH2) [Example 489] |  |  | 0.0131 nM | 103% | 0.257 nM | 112% | > 10100 nM | 13.5 nM | > 9950 nM | 0.578 nM | 79.4% | 98.7% |
| YXEGTXTSDXXIXLDXKAQXXFIXXLIEGGPSSGAPPPSK (Y-Aib-EGT-αMeF(2F)-TSD-4Pal-Aib-I-αMeL-LD-Orn-K((2-[2-(2-Amino-ethoxy)-ethoxy]-acetyl)3-(γ Glu)-CO-(CH2)10CH3)AQ-Aib-Orn-FI-(D-Glu)-αMeY-LIEGGPSSGAPPPSK((2-[2-(2-Amino-ethoxy)-ethoxy]-acetyl)3-(γ-Glu)-CO-(CH2)10-CH3)-NH2) [Example 435] |  |  | 0.00517 nM | 104% | 0.0527 nM | 111% | > 9950 nM | 1.63 nM | > 9950 nM | 0.0873 nM | 98.7% | 97.8% |
| YXEGTXTSDXXIXLDXKAQXEXIXXLIEGGPSSGAPPPSK (not fully specified; Y-Aib-EGT-αMeF(2F)-TSD-4Pal-Aib-I-αMeL-LD-Orn-K((2-[2-(2-Amino-ethoxy)-ethoxy]-acetyl)2-(γ Glu)-CO-(CH2)10C3)AQ-Aib-E-αMeF-I-(D-Glu)-αMeY-LIEGGPSSGAPPPSK((2-[2-(2-Amino-ethoxy)-ethoxy]-acetyl)2-(γ-Glu)-CO-(CH2)10-CH3)-NH2) [Example 431] |  |  | 0.0097 nM | 104% | 0.134 nM | 99.2% | > 9950 nM | 17.5 nM | > 9950 nM | 0.645 nM | 98% | 91.6% |
| YXEGTXTSDXXIXLDXKAQXEXIXXLIEGGPSSGAPPPSK (Y-Aib-EGT-αMeF(2F)-TSD-4Pal-Aib-I-αMeL-LD-Orn-K((2-[2-(2-Amino-ethoxy)-ethoxy]-acetyl)3-(Y-Glu)-CO-(CH2)10-CH3)AQ-Aib-E-αMeF-I-(D-Glu)-αMeY-LIEGGPSSGAPPPSK((2-[2-(2-Amino-ethoxy)-ethoxy]-acetyl)3-(γ-Glu)-CO-(CH2)10-CH3)-NH2) [Example 439] |  |  | 0.00799 nM |  | 0.11 nM | 95.7% | > 9950 nM | 9.25 nM | > 9950 nM | 0.396 nM | 91.7% | 97% |
| YXEGTXTSDXXIXLDXKAQXEFIXXLIEGGPSSGAPPPSK (Y-Aib-EGT-αMeF(2F)-TSD-4Pal-Aib-I-αMeL-LD-Orn-K((2-[2-(2-Amino-ethoxy)-ethoxy]-acetyl)3-(γ-Glu)-CO-(CH2)10-CH3)AQ-Aib-EFI-(D-Glu)-αMeY-LIEGGPSSGAPPPSK((2-[2-(2-Amino-ethoxy)-ethoxy]-acetyl)3-(γ-Glu)-CO-(CH2)10-CH3)-NH2) [Example 424] |  |  | 0.00502 nM | 101% | 0.0427 nM | 102% | > 9950 nM | 3.07 nM | > 9950 nM | 0.159 nM |  |  |
| YXEGTXTSDXSIXLDXKAQXEXIXXLIEGGKSSGAPPPS (Aib2, αMeF6, 4Pal10, αMeL13, Orn16, Aib20, αMeF22, D-Glu24, αMeY25; acylated K17, K31 (groups as in name); C-terminal amide) | 0.777 nM | > 9950 nM |  |  |  |  |  |  |  |  |  |  |
